Substitutions are numbered along the chain they refer to. Values belong to the binder of their own block, whether it stands above or below them.
What was measured:
recombinant LTβR-Ig = recombinant LTβR-Ig (UniProt P36941 31-227); assay: SPR
recombinant DcR3-Ig = molecular target: T1, recombinant DcR3-Ig (human, UniProt O95407 30-300); assay: SPR
T1 sequence (looked up): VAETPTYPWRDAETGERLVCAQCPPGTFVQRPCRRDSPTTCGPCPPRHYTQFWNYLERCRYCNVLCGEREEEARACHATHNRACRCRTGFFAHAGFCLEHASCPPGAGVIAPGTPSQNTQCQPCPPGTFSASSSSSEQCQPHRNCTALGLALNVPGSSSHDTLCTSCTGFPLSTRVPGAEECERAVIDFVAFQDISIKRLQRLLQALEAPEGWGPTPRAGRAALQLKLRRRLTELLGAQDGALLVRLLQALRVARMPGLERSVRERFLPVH

crystal structure = molecular target: the molecule itself; assay: crystal structure

recombinant LTβR-Ig, sequence (P36941 31-227): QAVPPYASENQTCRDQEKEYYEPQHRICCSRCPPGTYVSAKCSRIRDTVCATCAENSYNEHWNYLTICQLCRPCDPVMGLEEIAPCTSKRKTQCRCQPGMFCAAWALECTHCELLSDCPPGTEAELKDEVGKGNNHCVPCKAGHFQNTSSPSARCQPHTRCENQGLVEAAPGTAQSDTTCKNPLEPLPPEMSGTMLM

Kd (recombinant LTβR-Ig): 0.0112 ± 0.0006 µM | Kd (recombinant DcR3-Ig): 0.0167 ± 0.0003 µM
B1: Soluble LIGHT (residues L83-V240), wild type (ligand, human, UniProt O43557 83-240, looked up)
chain: LIQERRSHEVNPAAHLTGANSSLTGSGGPLLWETQLGLAFLRGLSYHDGALVVTKAGYYYIYSKVQLGGVGCPLGLASTITHGLYKRTPRYPEELELLVSQQSPCGRATSSSRVWWDSSFLGGVVHLEAGEKVVVRVLDERLVRLRDGTRSYFGAFMV
stoichiometry N (crystal structure): 3

Kd (recombinant LTβR-Ig): 0.021 ± 0.0033 µM | Kd (recombinant DcR3-Ig): 0.036 ± 0.0018 µM
B2: LIGHT mutant 1 (GH loop 226-231 replaced by the TL1A loop) (ligand, human)
chain: B1 chain with R144D, L145Y, R146T, D147K, G148E, T149D

Kd (recombinant LTβR-Ig): 0.0172 ± 0.014 µM | Kd (recombinant DcR3-Ig): 0.153 ± 0.054 µM
B3: LIGHT mutant 2 (EF loop 195-198 replaced by the TL1A loop) (ligand, human)
chain: B1 chain with R113S, V114N, W116F

From article PMC4163024 (Structure (London, England : 1993), 2014)
